Positions count from the first letter of the chain named.
Tests used:
Experiment in all cases: ELISA; decline multiple of Top against CD73-ND
CD73-ND-his = molecular target: T1, CD73-ND-his (human, UniProt P21589 27-317)
T1 construct: Biotinylated and captured on streptavidin in the ELISA
T1 sequence: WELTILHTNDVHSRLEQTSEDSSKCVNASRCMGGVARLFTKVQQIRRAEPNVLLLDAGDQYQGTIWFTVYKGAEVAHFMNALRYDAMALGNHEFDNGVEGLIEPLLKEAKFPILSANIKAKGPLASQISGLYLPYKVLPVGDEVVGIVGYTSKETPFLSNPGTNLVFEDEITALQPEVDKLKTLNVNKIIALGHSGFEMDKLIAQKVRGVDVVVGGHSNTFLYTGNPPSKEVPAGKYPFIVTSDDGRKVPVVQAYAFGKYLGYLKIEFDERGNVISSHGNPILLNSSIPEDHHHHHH
Experimental: (§1) The ELISA plates were coated with SA protein diluted to 1.5 μg/mL in coating buffer (50 mM carbonate coating buffer, pH 9.6) and incubated overnight at 4° C. The supernatant was discarded, and the plates were washed three times with PBST. Then, 5% skimmed milk powder prepared with PBS was added for blocking and the plates were incubated for 2 h at 37° C. After washing the plates once with PBST, CD73-biotin protein (prepared by biotinylating CD73-His protein according to the EZ-Link NHS-Biotin Reagent instructions) was diluted to 0.5 μg/mL and added at 100 μL/well for incubation at room temperature for 1 h. The plates were washed three times with PBST, and the prepared murine-derived monoclonal antibodies against human CD73 were serially diluted with 1% BSA buffer prepared with PBST and added to the ELISA plates at 100 μl/well. The plates were incubated at 37° C. for 1 h. After washing the plates three times with PBST, HRP-labeled goat anti-mouse IgG secondary antibody was added and the plates were incubated for 30 min at 37° C. After washing the plates three times with PBST, the residual droplets were patted dry on absorbent paper as much as possible. Then, 100 μl of TMB color developing solution was added to each well, and the plates were incubated in the dark at room temperature for 5 min for color development. Subsequently, 50 μl of 2M H₂SO₄ stop solution was added to each well to terminate the substrate reaction. The OD values were read at 450 nm using a multimode microplate reader to analyze the binding ability of the tested antibodies to the target antigen human CD73-His.
(§2) Referring to the experimental method in Example 3, the affinity of 48A11-HuV33 for various mutant proteins of CD73-ND was determined. The SA protein was diluted to 1 μg/mL for coating the ELISA plates, and the biotinylated CD73 protein (CD73-biotin) was used at a concentration of 0.1 μg/mL.

CD73-ND-N185A = molecular target: T2, CD73-ND-N185A (human, UniProt P21589 27-317)
T2 construct: Alanine mutant of CD73-ND
T2 sequence: T1 sequence with N185A
Experimental: as §1, §2

CD73-ND-K180A = molecular target: T3, CD73-ND-K180A (human, UniProt P21589 27-317)
T3 construct: Alanine mutant of CD73-ND
T3 sequence: T1 sequence with K180A
Experimental: as §1, §2

CD73-ND-K182A = molecular target: T4, CD73-ND-K182A (human, UniProt P21589 27-317)
T4 construct: Alanine mutant of CD73-ND
T4 sequence: T1 sequence with K182A
Experimental: as §1, §2

CD73-ND-V144A = molecular target: T5, CD73-ND-V144A (human, UniProt P21589 27-317)
T5 construct: Alanine mutant of CD73-ND
T5 sequence: T1 sequence with V144A
Experimental: as §1, §2

CD73-ND-L181A = molecular target: T6, CD73-ND-L181A (human, UniProt P21589 27-317)
T6 construct: Alanine mutant of CD73-ND
T6 sequence: T1 sequence with L181A
Experimental: as §1, §2

B1: 48A11-HuV33 (antibody, human IgG4, V domains shown)
VH: QVQLVQSGAEVKKPGASVKVSCKASGYTFTSYWMHWVRQAPGQGLEWIGEINPSIGRTNYNEKFKSRVTLTRDTSTSTAYMELSSLRSEDTAVYYCARRVYGTMDYWGQGTLVTVSS
VL: DIQMTQSPSSLSASVGDRVTITCKASQDINSYLSWFQQKPGKSPKLLIYRANIWVDGVPSRFSGSGSGQDYTFTISSLQPEDIATYYCLQYDELYTFGQGTKVEIK
notes: Humanized
Ratio(Top) (CD73-ND-his): 1 fold | Ratio(Top) (CD73-ND-N185A): 1 fold | Ratio(Top) (CD73-ND-K180A): 1.1 fold | Ratio(Top) (CD73-ND-K182A): 1 fold | Ratio(Top) (CD73-ND-V144A): 1.2 fold | Ratio(Top) (CD73-ND-L181A): 1.9 fold
